Data: patent US7888090B2, “Mutants of O6-alkylguanine-DNA alkyltransferase” (Ecole Polytechnique Federale de Lausanne, priority 2004, dated 2011)

How the values were obtained:
[1] = Activity assay with biotinylated O^6-benzylguanine (BG-Bt), Western blotting; assay type: biochemical; conditions: statement in words
Summary of the method: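 Purified mutant GST-AGT (0.2 μM) reacted with 1 μM biotinylated O^6-benzylguanine in 50 mM HEPES pH 7.2, 1 mM DTT at room temperature. Time-point aliquots quenched with O^6-benzylguanine in SDS buffer. Biotinylated protein detected by Western blot with neutravidin-peroxidase, band intensity quantified.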

[2] = Expression yield of soluble GST-AGT fusion protein; set-up: species or system E. coli; conditions: comparator not stated
Summary of the method: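 GST-AGT fusions expressed in E. coli BL21, induced with 0.5 mM IPTG for 3.5 h at 24 °C, and purified from the soluble fraction on glutathione sepharose. Soluble and insoluble fractions compared by SDS-PAGE. Yield taken from A280 relative to wild-type hAGT purified the same way.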

[3] = Periplasmic expression / stability under oxidizing conditions; set-up: species or system E. coli
Protocol: The activities towards AGT substrates are measured after purification without addition of reducing agents such as dithiothreitol or beta-mercaptoethanol. Alternatively, the activities of mutant AGT and wild type human are compared after their export into cellular compartments with oxidising redox potential (e.g. the periplasm of E. coli due to their fusion to appropriate signal sequences. Activity towards AGT substrates under reducing and oxidising conditions is compared by performing the reactions in the presence or absence of reducing agents such as dithiothreitol or beta-mercaptoethanol.
The mutant AGT gene of Example 1 is amplified and cloned as described in Example 1 with the oligonucleotides SEQ ID NO:3, SEQ ID NO:10 and SEQ ID NO:4, SEQ ID NO:9 causing the further mutation Cys62Ala in the gene upon their incorporation by PCR. Protein expression, purification and determination of yield is carried out as described in Example 1. The mutant gene is PCR amplified with the primers SEQ ID NO:11, SEQ ID NO:12 that contain SfiI restriction sites to subclone the gene in fusion to the g3 protein of filamentous phage in the vector pAK100 (Krebber et al., J Immunol Methods 201:35-55, 1997). […] The supernatant is directly subjected to quantification of protein yield via SDS-PAGE and activity assays as described in Example 1.
Stability under oxidizing conditions: The mutant gene is PCR amplified with the primers SEQ ID NO:11 and SEQ ID NO:28 to subclone the gene into pAK100, as described in Example 2. […] To compare the reactivity of […] (Juillerat et al., Chem Biol 10:313-317, 2003) and the mutant, samples are incubated with 1 µM BG-Bt for 50 min, quenched with SDS-Laemmli buffer and analyzed by western blotting using neutravidin peroxidase conjugate (Pierce) or a monoclonal mouse anti-FLAG IgG antibody (M2, Sigma) and a secondary anti-mouse-IgG::HRP conjugate, and Renaissance reagent plus (NEN). […] The anti-FLAG IgG antibody is used to estimate the total amount of soluble AGT protein, whereas neutravidin quantifies the reactive portion of it. […]

DNA = DNA binding in vitro (co-purified DNA, UV spectroscopy); set-up: species or system E. coli
Protocol: The interaction with DNA is e.g. quantified by assessing the amount of copurified DNA from E. coli extracts under conditions of low salt and absence of DNase. This is compared between parallel purifications of fusion proteins (e.g. fusions to GST) of wild type (human) and mutant AGT by spectroscopic methods (ratio of absorbance at 260 and 280 nm). Alternatively the interaction of AGT with DNA is measured as the inhibition of AGT reactivity with BG-Cy3 (O^6-(4-aminomethyl-benzyl)-guanine coupled to Cy3) as substrate in the presence of DNA. This approach takes advantage of a marked increase of fluorescence of the Cy3 fluorophore upon reaction of BG-Cy3 with AGT. The reaction kinetics of AGT with a Cy3-labeled benzylguanine derivative is followed by fluorescence intensity measurements over several hours at various concentrations of salmon sperm DNA.
For comparing the DNA binding properties of the protein in vitro, the harvested cells are resuspended, and the GST fusion protein is purified following the same method but in a buffer containing 50 mM phosphate, 0.1 M NaCl, 1 mM DTT. In the dialysed samples, the amount of subsequently co-purified DNA is estimated by UV spectroscopy. Spectra are recorded using a Perkin Elmer Lambda 10. The content of DNA corresponds to the ratio of the extinctions at 280 and 260 nm. […]

B1: Cys62Ala, Lys125Ala, Ala127Thr, Arg128Ala, Asn157Gly, Ser159Glu, truncated after Gly182: particularly preferred hAGT mutant with the listed mutations (protein, UniProt P16455 1-207, looked up, variant C62A K125A A127T R128A N157G S159E del183-207)
Methylated-DNA--protein-cystei …: MDKDCEMKRTTLDSPLGKLELSGCEQGLHEIKLLGKGTSAADAVEVPAPAAVLGGPEPLMQATAWLNAYFHQPEAIEEFPVPALHHPVFQQESFTRQVLWKLLKVVKFGEVISYQQLAALAGNPAATAAVGGAMRGNPVPILIPCHRVVCSSGAVGGYEGGLAVKEWLLAHEGHRLGKPGLG
In the case of B1, the “activity towards O^6-benzylguanine substrates” value [1] is reported as “increased reactivity”, the “expression yield in E. coli” value [2] is reported as “increased expression yield” and the sensitivity to oxidation [3] is reported as “reduced sensitivity to oxidation”. For the same molecule, the “reduced DNA binding” value (DNA) was “reduced DNA binding”.
